Consider one molecule from patent US20050063948A1 (published 2005).

For the test, the target named is T1, αvβ3 integrin on the surface of M21 human melanoma cells (human, UniProt P06756 31-1048; P05106 27-788).
T1 construct: whole, on cells; also called αvβ3 integrin heterodimer
As to the kind of experiment: immunofluorescence on M21 cells, detected with anti-mouse IL-12 p40 antibody and FITC secondary. The text has this:
The specificity of mrIL-12vp binding to αᵥβ₃ integrin-positive cell lines was subsequently determined. M21, a human melanoma line which expresses αᵥβ₃ integrin on its surface (Felding-Habermann, et al. (1992) J. Clin. Invest. 89:2018-2022), was used as a αᵥβ₃ integrin-positive cell line for this analysis. Prior to the studies with mrIL-12vp, the expression of αᵥβ₃ integrin was confirmed based on intense labeling of M21 cells with the anti-αᵥβ₃ integrin antibody LM609 using flow cytometry. […] Immunofluorescence evaluation of cells grown on chamber slides confirmed specific binding of mrIL-12vp, but not mrIL-12 to M21 cells. There was no binding of mrIL-12 or mrIL-12vp to Saos-2 cells.
Immunofluorescence labeling was performed in accordance with standard methods (Teng, et al. (2002) Am. J. Physiol. Renal Physiol. 282:F1075-F1083). M21 or Saos-2 cells were incubated with 5 μg of either mrIL-12 or mrIL-12vp for 30 minutes at 37 C in a 5% CO₂ atmosphere. The cells were rinsed with PBS, and then fixed with freshly prepared 4% paraformaldehyde for 10 minutes at room temperature. Detection of mrIL-12 or mrIL-12vp binding to cells used an anti-mouse IL-12 p40 antibody, followed by three washes with PBS and incubation with FITC-conjugated goat anti-mouse IgG (1:200) for 1 hour in the dark. As a control, anti-mouse IL-12 p40 was omitted from the labeling process.

T1 sequence (P06756 31-1048, chain 1 of 2): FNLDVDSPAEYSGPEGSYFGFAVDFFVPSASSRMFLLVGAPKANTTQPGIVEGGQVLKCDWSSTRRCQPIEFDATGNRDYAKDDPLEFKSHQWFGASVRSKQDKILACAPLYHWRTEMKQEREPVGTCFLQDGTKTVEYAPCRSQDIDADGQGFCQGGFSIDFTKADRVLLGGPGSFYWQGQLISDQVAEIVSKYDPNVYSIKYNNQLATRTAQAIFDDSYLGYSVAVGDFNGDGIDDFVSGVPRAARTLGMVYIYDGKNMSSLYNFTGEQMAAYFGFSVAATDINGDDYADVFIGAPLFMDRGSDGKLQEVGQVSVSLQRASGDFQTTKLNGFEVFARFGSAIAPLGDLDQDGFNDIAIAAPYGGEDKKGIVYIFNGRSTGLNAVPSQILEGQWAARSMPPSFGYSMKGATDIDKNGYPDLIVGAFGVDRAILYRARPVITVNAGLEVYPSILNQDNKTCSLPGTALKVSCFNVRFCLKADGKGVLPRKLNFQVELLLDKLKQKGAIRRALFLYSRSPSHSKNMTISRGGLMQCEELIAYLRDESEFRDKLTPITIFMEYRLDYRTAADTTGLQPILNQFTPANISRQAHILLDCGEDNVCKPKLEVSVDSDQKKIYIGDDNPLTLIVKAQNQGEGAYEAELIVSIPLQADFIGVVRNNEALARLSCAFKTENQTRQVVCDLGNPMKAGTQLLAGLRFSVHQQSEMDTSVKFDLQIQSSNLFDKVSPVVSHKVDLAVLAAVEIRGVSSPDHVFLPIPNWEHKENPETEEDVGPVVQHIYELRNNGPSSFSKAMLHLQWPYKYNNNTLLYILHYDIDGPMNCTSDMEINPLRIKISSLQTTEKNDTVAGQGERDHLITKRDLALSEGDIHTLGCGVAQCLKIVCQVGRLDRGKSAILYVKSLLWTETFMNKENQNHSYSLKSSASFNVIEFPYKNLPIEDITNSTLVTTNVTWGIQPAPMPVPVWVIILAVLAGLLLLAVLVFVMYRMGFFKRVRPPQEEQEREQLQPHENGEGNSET
T1 sequence (P05106 27-788, chain 2 of 2): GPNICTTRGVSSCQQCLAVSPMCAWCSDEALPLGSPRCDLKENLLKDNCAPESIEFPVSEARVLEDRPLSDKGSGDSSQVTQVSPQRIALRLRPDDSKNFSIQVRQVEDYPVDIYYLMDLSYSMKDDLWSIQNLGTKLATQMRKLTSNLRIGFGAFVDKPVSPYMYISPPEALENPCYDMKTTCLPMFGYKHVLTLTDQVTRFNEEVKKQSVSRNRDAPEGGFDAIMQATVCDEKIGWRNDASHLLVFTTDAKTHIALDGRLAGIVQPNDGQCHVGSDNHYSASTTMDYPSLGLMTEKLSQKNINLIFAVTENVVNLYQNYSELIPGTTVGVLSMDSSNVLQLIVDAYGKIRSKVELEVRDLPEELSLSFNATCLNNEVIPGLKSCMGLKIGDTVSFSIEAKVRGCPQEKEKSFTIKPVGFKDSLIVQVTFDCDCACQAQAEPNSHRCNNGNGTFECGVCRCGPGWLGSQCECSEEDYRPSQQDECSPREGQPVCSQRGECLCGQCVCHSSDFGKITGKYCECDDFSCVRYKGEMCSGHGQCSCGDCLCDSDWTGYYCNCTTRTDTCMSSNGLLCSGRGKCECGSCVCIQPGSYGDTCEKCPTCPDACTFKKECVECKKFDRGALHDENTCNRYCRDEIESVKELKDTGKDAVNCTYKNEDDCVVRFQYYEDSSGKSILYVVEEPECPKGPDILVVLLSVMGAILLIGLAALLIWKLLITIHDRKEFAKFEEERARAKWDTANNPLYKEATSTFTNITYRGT

B1: murine recombinant IL-12 (mrIL-12) (ligand, mouse)
chain 1: RVIPVSGPARCLSQSRNLLKTTDDMVKTAREKLKHYSCTAEDIDHEDITRDQTSTLKTCLPLELHKNESCLATRETSSTTRGSCLPPQKTSLMMTLCLGSIYEDLKMYQTEFQAINAALQNHNHQQIILDKGMLVAIDELMQSLNHNGETLRQKPPVGEADPYRVKMKLCILLHAFSTRVVTINRVMGYLSSA
chain 2: MWELEKDVYVVEVDWTPDAPGETVNLTCDTPEEDDITWTSDQRHGVIGSGKTLTITVKEFLDAGQYTCHKGGETLSHSHLLLHKKENGIWSTEILKNFKNKTFLKCEAPNYSGRFTCSWLVQRNMDLKFNIKSSSSSPDSRAVTCGMASLSAEKVTLDQRDYEKYSVSCQEDVTCPTAEETLPIELALEARQQNKYENYSTSFFIRDIIKPDPPKNLQMKPLKNSQVEVSWEYPDSWSTPHSYFSLKFFVRIQRKKEKMKETEEGCNQKGAFLVEKTSTEVQCKGGNVCVQAQDRYYNSSCSKWACVPCRVRS
notes: Bought
With B1, the binding result is “no binding (tested: 5 µg)”.
